From doi:10.1101/2020.01.10.902072 (bioRxiv, 2020)

Target: the molecule itself
Experiment: cryo-EM structure

B1: rat GluD2 receptor, C-terminally truncated at residue 870 (GluD2Δ870) (receptor, UniProt Q63226 24-870, looked up)
chain: DSIIHIGAIFDESAKKDDEVFRTAVGDLNQNEEILQTEKITFSVTFVDGNNPFQAVQEACELMNQGILALVSSIGCTSAGSLQSLADAMHIPHLFIQRSTAGTPRSGCGLTRSNRNDDYTLSVRPPVYLNEVILRVVTEYAWQKFIIFYDSEYDIRGIQEFLDKVSQQGMDVALQKVENNINKMITTLFDTMRIEELNRYRDTLRRAILVMNPATAKSFISEVVETNLVAFDCHWIIINEEINDVDVQELVRRSIGRLTIIRQTFPVPQNISQRCFRGNHRISSTLCDPKDPFAQNMEISNLYIYDTVLLLANAFHKKLEDRKWHSMASLSCIRKNSKPWQGGRSMLETIKKGGVNGLTGDLEFGENGGNPNVHFEILGTNYGEELGRGVRKLGCWNPVTGLNGSLTDKKLENNMRGVVLRVVTVLEEPFVMVSENVLGKPKKYQGFSIDVLDALSNYLGFNYEIYVAPDHKYGSPQEDGTWNGLVGELVFKRADIGISALTITPDRENVVDFTTRYMDYSVGVLLRRAEKTVDMFACLAPFDLSLWACIAGTVLLVGLLVYLLNWLNPPRLQMGSMTSTTLYNSMWFVYGSFVQQGGEVPYTTLATRMMMGAWWLFALIVISSYTANLAAFLTITRIESSIQSLQDLSKQTDIPYGTVLDSAVYQHVRMKGLNPFERDSMYSQMWRMINRSNGSENNVLESQAGIQKVKYGNYAFVWDAAVLEYVAINDPDCSFYTVGNTVADRGYGIALQHGSPYRDVFSQRILELQQSGDMDILKHKWWPKNGQCDLYSSVDAKQKGGALDIKSLAGVFCILAAGIVLSCLIAVLETWWSRRKGSRVPSKEDDK
In the case of B1, the “stoichiometry N” value is reported as 4.
